Results from publication PMC8602370.
Where “and” joins values, the source holds several entries; their conditions need not be identical. Identical values can stand only once.

How the values were obtained:
[1] = target: PARP1 (residues 1 to 1014), P09874; assay: SPR; biotinylated DNA SSB captured on a streptavidin chip, PARP1 (40 nM) flowed on to form a PARP1/DNA complex, then HPF1 injected at 62.5-2000 nM with 5 µM EB47 in the buffer; 25 mM HEPES pH 7.4, 250 mM NaCl, 0.1 mM TCEP, 1 mM EDTA, 0.05% Tween20; 1:1 model, steady-state plateaus and kinetic fit; conditions: remark: other sources report otherwise
PARP1 (residues 1 to 1014), P09874, sequence (P09874 whole entry, the tested form may be a part): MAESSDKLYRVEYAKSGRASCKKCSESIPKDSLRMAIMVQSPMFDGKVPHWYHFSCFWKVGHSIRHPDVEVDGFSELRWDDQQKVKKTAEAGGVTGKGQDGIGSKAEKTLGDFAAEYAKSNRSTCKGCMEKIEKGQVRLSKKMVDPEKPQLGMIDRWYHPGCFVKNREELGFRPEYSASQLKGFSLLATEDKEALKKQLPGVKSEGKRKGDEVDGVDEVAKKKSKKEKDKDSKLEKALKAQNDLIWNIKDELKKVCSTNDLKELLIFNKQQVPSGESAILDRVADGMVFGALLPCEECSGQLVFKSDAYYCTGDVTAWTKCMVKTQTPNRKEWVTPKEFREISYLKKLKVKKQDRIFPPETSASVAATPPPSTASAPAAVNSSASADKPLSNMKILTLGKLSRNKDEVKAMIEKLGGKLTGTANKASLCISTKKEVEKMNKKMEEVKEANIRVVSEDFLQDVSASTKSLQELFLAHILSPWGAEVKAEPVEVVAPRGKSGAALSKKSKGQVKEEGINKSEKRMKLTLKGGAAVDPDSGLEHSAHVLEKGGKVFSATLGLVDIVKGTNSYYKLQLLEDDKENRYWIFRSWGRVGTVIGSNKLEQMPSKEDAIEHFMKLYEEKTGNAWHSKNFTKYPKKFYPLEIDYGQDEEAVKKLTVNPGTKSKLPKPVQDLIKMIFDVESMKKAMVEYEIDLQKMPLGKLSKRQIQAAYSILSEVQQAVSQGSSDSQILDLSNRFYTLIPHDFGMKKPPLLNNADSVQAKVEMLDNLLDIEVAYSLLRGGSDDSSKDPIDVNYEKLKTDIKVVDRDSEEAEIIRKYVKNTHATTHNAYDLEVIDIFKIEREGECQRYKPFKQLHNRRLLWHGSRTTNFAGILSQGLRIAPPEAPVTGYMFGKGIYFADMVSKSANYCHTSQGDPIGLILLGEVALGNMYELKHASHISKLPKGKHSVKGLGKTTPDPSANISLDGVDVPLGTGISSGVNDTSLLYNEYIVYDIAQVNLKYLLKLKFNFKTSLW

[2] = target: PARP1 (residues 1 to 1014), P09874; assay: as above; conditions: remark: other sources report otherwise; remark: listed apart in the source

Kd [1]: 480 nM and 617 nM
koff [1]: 0.071 s⁻¹
kon [1]: 112000 M⁻¹ s⁻¹
Kd [2]: 540 nM and 550 nM
koff [2]: 0.06 s⁻¹
kon [2]: 100000 M⁻¹ s⁻¹
B1: Histone PARylation Factor 1 (HPF1), Q9NWY4 1-346 (natural protein)
chain: MVGGGGKRRPGGEGPQCEKTTDVKKSKFCEADVSSDLRKEVENHYKLSLPEDFYHFWKFCEELDPEKPSDSLSASLGLQLVGPYDILAGKHKTKKKSTGLNFNLHWRFYYDPPEFQTIIIGDNKTQYHMGYFRDSPDEFPVYVGINEAKKNCIIVPNGDNVFAAVKLFLTKKLREITDKKKINLLKNIDEKLTEAARELGYSLEQRTVKMKQRDKKVVTKTFHGAGLVVPVDKNDVGYRELPETDADLKRICKTIVEAASDEERLKAFAPIQEMMTFVQFANDECDYGMGLELGMDLFCYGSHYFHKVAGQLLPLAYNLLKRNLFAEIIEEHLANRSQENIDQLAA
